Test system: MS2 coat protein
Test: apparent KD of MS2 coat protein; designed switch direction (-1 OFF switch, 1 ON switch): 1; higher = weaker reporter binding
Method in brief: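 Each step of the titration lasted 0.8–1.5 h at the lowest concentration and 10–20 min at the highest. The protein, SNAP-549-labelled MS2 coat protein, went from 0.7 or 1.5 nM doubling to 3 µM over RNA switches transcribed on Illumina chips by stalled E. coli RNA polymerase. Normalised cluster fluorescence was curve-fitted, and the per-design median over clusters is given as apparent KD.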

[1] = input ligand: microRNA oligo, concentration not stated
[2] = Eterna round: R95, input ligand: FMN 200 uM
[3] = Eterna round: R95, input ligand: microRNA oligo, concentration not stated
[4] = Eterna round: R95, input ligand: none

| Sequence | apparent KD of MS2 coat protein [1] [nM] | apparent KD of MS2 coat protein (input ligand: FMN 200 uM) [nM] | apparent KD of MS2 coat protein (input ligand: none) [nM] | apparent KD of MS2 coat protein [2] [nM] | apparent KD of MS2 coat protein [3] [nM] | apparent KD of MS2 coat protein [4] [nM] |
| --- | --- | --- | --- | --- | --- | --- |
| AAUUUAAUACAUGAGGAUCACCCAUGUAAAUUAAUUAAGAUCUAGGAUAUCAGCUCGAAUAGAGCUGAGAAGGAGAUCACAUGU [SSNG3/19-B1] (Eterna round: R96, puzzle: Same State NG 3) | 13.8 | – | – | – | – | – |
| AUACAUAUCAGAGGAUAUCACGUCGAAUAGACGUGAGAAGGCUGAUCACACAUGAAUAUUAAUACAUGAGGAUCACCCAUGUAU [SSNG1/14-A1] (Eterna round: R96, puzzle: Same State NG 1) | 13.3 | 13.1 | 17.4 | – | – | – |
| AAACGGCCGAACGGAGGACCACAUGAGGAUCACCCAUGUACAUAGGAUAUCAUGCCAACGAGGCAUGAGAAGGGUGAUUAAAAC [Ribigeso] (Eterna round: R96, puzzle: Same State NG 3) | 27.6 | 126 | 32 | – | – | – |
| GUAGCAUACCGAGGAUAUUCAUAUUACAUGAGGAUCACCCAUGUUAAAGAUAGGCGAAAGCCUUGGGAGAAGGCGGAAUGCUAC [Xeonanis - 20 Mod68] (Eterna round: R96, puzzle: Same State NG 2) | 10.7 | 8.61 | 11.3 | – | – | – |
| GGUGCCAAUAAAGCCUACAUGAGGAUCACCCAUGUAUGUAGGCAGGAUAUCGUUUGCUUUGCAAACGAGAAGGGCCUAGGCACC [JL SSNG3 1.21] (Eterna round: R96, puzzle: Same State NG 3) | 24.3 | 16.3 | 29.8 | – | – | – |
| ACAUGAGGAUCACCCAUGUAUGCUCAGGAAACUGUGCAACGUGAGGAUAUGGAUCCUAAUUGGAUCCAGAAGGCAUGAAUUAUU [Fiskers NG3ss - 23] (Eterna round: R96, puzzle: Same State NG 3) | 170 | 41.5 | 418 | – | – | – |
| GGAGCCGGCCUAGGAUAUUUCAUUAAUAAACAUGAGGAUCACCCAUGUAGGCCAGAAGGCCUUGGGAAGAAGGAGGUCGGCUCC [Loop Effect - U24,U27] (Eterna round: R96, puzzle: Same State NG 2) | 24.5 | 21.2 | 37.7 | – | – | – |
| AGUCCAGCCUAAGCUGGACAAAAGCAUGUACAUGAGGAUCACCCAUGUUCAUGUACAAGCUUUUUGCUCGUCUUAAG [Mat - hsa-mir-208a - Mod of JL - 65] (puzzle: Sensor for hsa-mir-208a) | – | – | – | 864 | 18.7 | 844 |
| UAGUGAUUGCAAGGAUAUGCUUAUGUUUAAUUUUUUUUAAUAUCUAACAUGAGGAUCACCCAUGUGCAGAAGGUGCUUGAUUUG [JR_SSNG2_Sub075] (Eterna round: R96, puzzle: Same State NG 2) | 54.2 | – | – | – | – | – |
| AUGCUCGUGUGAGGAUAUGCCGCCGUUUCGGCUGCAGAAGGUGCUACGUUACAUGAGGAUCACCCAUGUCUCUGUUGUUUCGUG [salish99_SSNG1_r04_942] (Eterna round: R96, puzzle: Same State NG 1) | 18.7 | – | – | – | – | – |
| AAGCUCGUGUGAGGAUAUGCCGCCGUUUCGGCUGCAGAAGGUGCUACGUUACAUGAGGAUCACCCAUGUCUCUGUUGUUUCGUG [salish99_SSNG1_r04_953] (Eterna round: R96, puzzle: Same State NG 1) | 18.5 | – | – | – | – | – |
| UUAACAUGAGGAUCACCCAUGUAUACGGAGUUUGCAAUUUGACAGGAUAUUGAAGAUCUAUAUAGCAAGAAGGGUCGUUAGUCU [JR_SSNG3_Sub006] (Eterna round: R96, puzzle: Same State NG 3) | 32.6 | 47.5 | 44.7 | – | – | – |
| CCCAUGAAUAGUCAGGAUAUACGAUUUUAUACAUGAGGAUCACCCAUGUUAAGACUCCUCAAUAAGUAGAAGGGACUAUUUAUAA [Tesla Same State 2] (puzzle: Same State 2) | – | – | – | 154 | 144 | 103 |
| AUAAAACAUGAGGAUCACCCAUGUCAACUAAGUCGAGGAUAUGGGCAAAUAAAAUAAGAACCAGAAGGCGAAUAAU [salish99_ss1_r3_041] (puzzle: Same State 1) | – | – | – | 34.3 | 322 | 361 |
| GGAGGAUGAGCGUAGGAUAUAGGAGGAGUGACAUGAGGAUCACCCAUGUGGUAGGAGGGAGGGUACUAGAAGGACGAGGAAGAGG [JR_SS2_Sub070] (puzzle: Same State 2) | – | – | – | 54.6 | 64.5 | 74.5 |
| AGUCCAGCAAGAGCUGGACAAAAGCAUGUACAUGAGGAUCACCCAUGUUCAUGUACAAGCUUUUUGCUCGUCAAAAG [Mat - hsa-mir-208a - Mod of JL - 72] (puzzle: Sensor for hsa-mir-208a) | – | – | – | 216 | 19.9 | 318 |

| Sequence | apparent KD of MS2 coat protein [1] [nM] | apparent KD of MS2 coat protein (input ligand: FMN 200 uM) [nM] | apparent KD of MS2 coat protein (input ligand: none) [nM] | apparent KD of MS2 coat protein [2] [nM] | apparent KD of MS2 coat protein [3] [nM] | apparent KD of MS2 coat protein [4] [nM] |
| --- | --- | --- | --- | --- | --- | --- |
| GGCUGCAAUUAUGAGGAUAUGUUCGGAUGAACAUGAGGAUCACCCAUGUGGCGAUAGCUAUCUGUGCAGAAGGUGUAGUGGUAGC [Edlexete] (Eterna round: R96, puzzle: Same State 2) | 90.7 | 57.9 | 186 | – | – | – |
| AAGGGAUGAGCGUAGGAUAUAGGAGAAGUGACAUGAGGAUCACCCAUGUAAAAGGAGGGAUGAGACUAGAAGGACGAGGUAGGAG [JR_SS2_Sub059] (puzzle: Same State 2) | – | – | – | 132 | 84.6 | 91.5 |
| GAGUGGCGAUUAGGAUAUACAGUGAUAAUGAUAGUAGAAGGAAUUGACAUGAGGAUCACCCAUGUAGGACUAAUCCAGAGAGAG [Parity 30 - Jieux - Same State NG 1] (Eterna round: R96, puzzle: Same State NG 1) | 57 | – | – | – | – | – |
| GGAGCCGAUACUGAGGAUAUUCAUAUUAAAACAUGAGGAUCACCCAUGUAGGCCAGAAGGCCUUGGGAGAAGGCAGAUCGGCUCC [Biseusra - 4] (Eterna round: R96, puzzle: Same State 2) | 207 | 21 | 358 | – | – | – |
| UAGCAGUGCGGGUAGGAUAUGUAGGGUGGUACAUGAGGAUCACCCAUGUAUCCACCCUUCGACCGGCAGAAGGGCCUGUCACUGC [Edor] (Eterna round: R96, puzzle: Same State 2) | 13.2 | – | – | – | – | – |
| GAGUGGAGGAGAGGAUAUACAAUGAUAAUCACAGUAGAAGGUUCUAACAUGAGGAUCACCCAUGUAGGACUAUACCUGAGAGAA [Parity 48 - Jieux - Same State NG 1] (Eterna round: R96, puzzle: Same State NG 1) | 9.96 | 12.7 | 16 | – | – | – |
| GUAGCAUACCGAGGAUAUUCAUACAUGAGGAUCACCCAUGUUAUUAUAGGACGAUUACGUCCUUGGGAGAAGGCGGAAUGCUAC [Xeonanis - 20 Mod29] (Eterna round: R96, puzzle: Same State NG 2) | 11.8 | 10.2 | 15.1 | – | – | – |
| GGCCUCUGUCAAGGAUAUGCUACCGUUUCGGUAGCAGAAGGUGAUCACAUGCGGGUCACCCAUGUUUAGGCCCUCUGGCCCGCC (Eterna round: R96, puzzle: Same State NG 1) | 10.2 | 19.1 | 18.6 | – | – | – |
| AGCAUACAUGAGGAUCACCCAUGUCAACUUAGUCGAGGAUAUGGGCAGCCCUGAGGCGAACCAGAAGGCGAAUUGA [Mat - Same State 1 - Mod of JL - D1] (puzzle: Same State 1) | – | – | – | 28.3 | 51.5 | 66.1 |
| GUAGCAUACCGAGGAUAUUCAUAUUAACAUGAGGAUCACCCAUGUUUUUAGGCCAAAAGGCCUUGGGAGAAGGCGGAAUGCUAC [Xeonanis - 20 Mod6] (Eterna round: R96, puzzle: Same State NG 2) | 12.8 | 11.4 | 16.1 | – | – | – |
| GGAGCCUGCACUGAGGAUAUUCAUAUUUAAACAUGAGGAUCACCCAUGUAGGCCAGAAGGCCUUGGGAGAAGGCAGGUCGGCUCG [salish99_ss2_r3_083] (puzzle: Same State 2) | – | – | – | 35.3 | 372 | 780 |
| CUGAGCAAGCAAGGAUAUCACGUCGUUUAGACGUGAGAAGGUGCUCCUUACAUGAGGAUCACCCAUGUAUAACAUGAAGCUCAG [SSNG1/10-A3] (Eterna round: R96, puzzle: Same State NG 1) | 273 | 150 | 870 | – | – | – |
| UGAAUAGUCACAGGAUAUCAUGCGAAAAUUGCGUGAGAAGGGUGGAUGUUGUGCUCAAAGUGCUACAUGAGGAUCACCCAUGUU [SameState NG1 #42] (Eterna round: R96, puzzle: Same State NG 1) | 234 | 337 | 187 | – | – | – |
| GUGGUCAGACAUGAGGAUCACCCAUGUGGAAUAAAUAAGGAGAAGGAUAUGCAAUAUAGGAUAUAGUAGAAGGUCUGGUUGGUG (Eterna round: R96, puzzle: Same State NG 3) | 63.4 | – | – | – | – | – |
| AGCCGAAGCGCAGGAUAUACAUGUAUACAUGAGGAUCACCCAUGUAGCAACACGUGGUAGUGAUUGUAGAAGGGUGCUCGGCGC [Omei SS(NG)2 Cv15] (Eterna round: R96, puzzle: Same State NG 2) | 18.6 | – | – | – | – | – |
| GUGGUCAGACAUGAGGAUCACCCAUGUGGAAUAAAUAACGUACAGGAUAUGGAAUAUAGGAUAUACUAGAAGGGUAGAUUGGUG (Eterna round: R96, puzzle: Same State NG 3) | 75.3 | 110 | 87.7 | – | – | – |
